Entries after “also recorded” stand apart in the source; their conditions may differ. Values belong to the molecule of their own block, whether it stands above or below them.
Key:
[1] = system: PC12 cells; assay: NGF-induced neurite outgrowth; type: cell-based; details: NGF 50 ng/ml
Description: PC12 were transfected with GFP-TRIPα (lack squares) or GFP (white diamonds) and subjected to a time-course exposure to NGF (50 ng/ml). At each time-point cells were fixed and the number of transfected cells with neurites was counted from at least 200 cells.
Since Trio is an activator of RhoA and is expressed in PC12 cells (Estrach et al., 2002), it was analysed whether TRIPα could interfere with serum-induced neurite retraction in NGF-differentiated PC12 cells. […] After NGF treatment, cells were subjected to serum addition (DMEM medium supplemented with 10% HS and 5% fetal calf serum (FCS)) from 0 to 15 min (FIG. 6A). Cells were then fixed and permeabilised (Estrach et al., 2002) and observed as described in FIG. 5. Cells with neurites are defined as cells with neurites of at least twice the length of the cell body.
However, since the NGF treatment was performed for 16 hours, it was still possible that the effect of TRIPα on the NGF-differentiation signal was masked by the long NGF exposure. To test this hypothesis, PC12 cells expressing GFP-TRIPα or […] were subjected to a time-course exposure to NGF (50 ng/ml) for 1 to 24 hours.

[2] = target: T1, TrioGEFD1 (Homo sapiens, UniProt O75962); assay: In vitro GEF assay on RhoG; type: biochemical; parameters: key to in vitro GEF assay (inhibition): +++^2 and +^2 represent respectively a full and a partial (see FIG. 3) inhibitory effect; +++^2 and +^2 represent respectively a full and a partial (see FIG. 3) inhibitory effect; −−^2 represents a lack of inhibitory effect; details: for Effect on TrioGEFD1 exchange activity on RhoG: 20-fold molar excess, TrioGEFD1 0.1 μM, RhoG 0.3 μM
T1 construct: TrioGEFD1 (a.a. 1232-1629, 0.1 μM); made in house
Description: To test the specificity of TRIAPα inhibition in vitro, exchange experiments were performed either on RhoA with different RhoA-specific GEFs: Trio GEFD2 (0.4 μM), Kalirin GEFD2 (KalGEFD2, 1.7 μM), p63RhoGEF (Souchet et al., 2002) (0.4 μM) and Lbc (amino acids 172-598; Zheng et al., 1995) (0.4 μM), or on RhoG, with the RhoG-specific GEF domain of Trio (TrioGEFD1, 0.1 μM). Exchange assays were performed with the recombinant GEFs as described in FIG. 2A. Different concentrations of RhoGEFs were used to yield a similar nucleotide exchange efficiency. For each exchange factor, three independent experiments were done in absence (black bar) or in the presence (grey bar) of a 20-fold molar excess of TRIAPα.
An in vitro guanine nucleotide exchange (GEF) assay was used to test whether the TrioGEFD2-binding aptamers could inhibit the catalytic activity of TrioGEFD2 towards RhoA. For this purpose, the aptamers TRIAPα, TRIAPβ and TRIAPγ (including the Trx gene) were excised from pEG202 as EcoRI/NotI fragments and cloned into pGEX4T1 EcoRI/NotI. The aptamers were then expressed and purified from bacteria as GST fusion proteins, using standard procedures (Smith and Johnson, 1988). GTPase-GST fusion proteins were prepared, loaded with [^3H]GDP and the guanine nucleotide release assays were performed as described (Debant et al., 1996), using recombinant GST-TrioGEFD2 (a.a. 1848-2298), TrioDH2 (a.a. 1848-2096). For each point, 0.3 μM GTPase was mixed with or without 0.4 μM GEF in presence of non-labeled GTP, and the reaction mix was filtered after 0 min and 15 mm reaction at 25° C. The catalytic activity of TrioGEFD2 was thus measured by the decrease of the GTPase-associated radioactivity. The results are expressed as the ratio “exchange after 15 min over exchange after 0 min” (% bound [^3H]GDP-RhoA). To measure the effect of the aptamers on the exchange activity, a 20-fold molar excess of GST-TRIAPs was pre-incubated with GEFD2 (or GEFD1) for 30 min on ice before the exchange assay was carried out. For each experiment, data were obtained in triplicate. […]

Molecule: AREGADGAICGYNLATLVMLGPSERVFCPLCEPCSSDIYELM [TRIPα, 42-amino acid peptide corresponding to the variable region of TRIAPα]
Effect on NGF-induced neurite outgrowth, time course ([1]; 1 to 24 hours): enhances NGF-induced neurite outgrowth
Effect on NGF-induced neurite outgrowth after 16 hours NGF ([1]; 16 hours): had no visible effect on the NGF pathway; also recorded: does not seem to have an effect

Effect on TrioGEFD1 exchange activity on RhoG [2]: has no effect
Effect on TrioGEFD1 exchange activity on RhoG ([2]; listed as GST-TRIAPα): did not block
in vitro GEF assay (inhibition) ([2]; RhoGEF TrioDH1PH1): −−^2
B1: TRIAPα: aptamer of 154 amino acids: variable region of 42 amino acids inserted into the thioredoxin protein; tested as GST fusion (protein)
chain: MSDKIIHLTDDSFDTDVLKADGAILVDFWAEWCGPAREGADGAICGYNLATLVMLGPSERVFCPLCEPCSSDIYELMGPCKMIAPILDEIADEYQGKLTVAKLNIDQNPGTAPKYGIRGIPTLLLFKNGEVASATKVGALSKGQLKEFLDANLA

— patent US8088892B2, “Inhibitors of proteins from the Rho-GEF family” (Centre National de la Recherche Scientifique (C.N.R.S.), priority 2002, dated 2012)
